± gives the standard deviation of the averaged measurements.
Test system: ATP
Test: switch fluorescence ratio, 500 uM ATP over buffer (Cy3 cluster intensity, sum of 5 cycles each) (fold (ratio)); higher = stronger signal-on switching upon ATP binding; sequences stand for … in TCGTCGGCAGCGTCAGATGTGTATAAGAGACAGTTTTTTTTTTTTTTTTTTTTTTTTT…TC
Details: aptamer strand: ATP DNA aptamer (quencher-CACCTGGGGGAGTATTGCGGAGGAAGG + anchor), 100 nM annealed; ATP concentration: 500 uM
Procedure, shortened: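 Cy3-labelled switching-strand clusters on a modified Illumina MiSeq flow-cell were annealed to 100 nM quencher-labelled ATP aptamer, imaged in selection buffer, then imaged after 15 min with 500 uM ATP at 22 °C. Five buffer/ATP cycles ran, with NaOH stripping and re-annealing between them. The fluorescence ratio is summed target-cycle over summed buffer-cycle Cy3 intensity per cluster, averaged per switch-domain sequence. Clusters outside 100-1000 RFU were excluded.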
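Note: ATP exposure 15 min at 22 °C before imaging.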

| Sequence | switch fluorescence ratio |
| --- | --- |
| CGTGTCGCGC | 1.002 ± 0.01 |
| TTAGGTTTGC | 1 ± 0.032 |
| GTTGGCGTGA | 1.01 ± 0.057 |
| GGGTACCTGT | 1.01 ± 0.034 |
| TCGGGGTTCG | 0.992 ± 0.03 |
| TATCTCTGGG | 1.02 ± 0.014 |
| TGGGCGGGAT | 1 ± 0.039 |
| GAGTTTCAGT | 1.04 ± 0.073 |
| TCGTTGAACG | 0.973 ± 0.03 |
| CAAGAGGGAG | 0.994 ± 0.018 |
| GGTAACGTTC | 0.989 ± 0.015 |
| TTTAAAGTGA | 1 ± 0.032 |
| CGATTAAAAT | 0.986 ± 0.021 |
| GGGTTATTGG | 0.991 ± 0.04 |
| TTTGAGGCAT | 1.71 ± 1.2 |
| AGTAACTTGA | 1 ± 0.013 |
| GTGTCGC | 0.991 ± 0.047 |
| GGTGTGGGAT | 1.01 ± 0.057 |
| TGAGATTTGT | 1.06 ± 0.12 |
| GTGGGGACAC | 0.973 ± 0.036 |
| AGGCGGAACT | 1.02 ± 0.026 |
| TACACGCGGG | 1.01 ± 0.048 |
| CTTAATTTTG | 0.973 ± 0.027 |
| ATAGGTCTCG | 1 ± 0.031 |
| TTTAGGTAAC | 0.9922 ± 0.0079 |

| Sequence | switch fluorescence ratio |
| --- | --- |
| GCGGGTTAAG | 0.9832 ± 0.0023 |
| TAGCGAGCGC | 0.988 ± 0.068 |
| GATTGGTGTG | 0.997 ± 0.024 |
| GTTCGTCCTC | 1.03 ± 0.031 |
| ATGGGGCGGC | 0.983 ± 0.026 |
| CGAGGATGT | 1.01 ± 0.011 |
| AGAGACCTCA | 1.045 ± 0.0027 |
| CGTAGAGAGG | 0.998 ± 0.0029 |
| CGGTTAGTGT | 0.971 ± 0.035 |
| TTTTTGAAAT | 1.35 ± 0.6 |
| GGAAGGTGGT | 0.987 ± 0.024 |
| CATAGGGGAC | 0.978 ± 0.066 |
| AAGATGAAT | 0.975 ± 0.04 |
| GATCATATTT | 1 ± 0.017 |
| GTTGAATTGG | 0.985 ± 0.026 |
| CCGGACAGTG | 1.09 ± 0.099 |
| CTGTCAGACT | 1.03 ± 0.058 |
| CGATTTTGTT | 0.989 ± 0.034 |
| TTTTCTGCGT | 1.02 ± 0.043 |
| AGGTGAAGTT | 1.02 ± 0.062 |
| TTTTCATTAA | 0.9932 ± 0.008 |
| ACTCAGTGTC | 1.05 ± 0.023 |
| CGAAGGCTGT | 1.003 ± 0.0095 |
| TTTGACCGTT | 0.988 ± 0.035 |
| TAATGAATAG | 1.01 ± 0.042 |

| Sequence | switch fluorescence ratio |
| --- | --- |
| ATGATATTTT | 0.986 ± 0.027 |
| TATAGGTGCA | 0.997 ± 0.024 |
| GTGTTTTAAA | 1 ± 0.037 |
| GGGAGTAAGG | 1.024 ± 0.0025 |
| TGAGTTTTAG | 0.972 ± 0.031 |
| TTATGGCGCC | 0.9862 ± 0.0046 |
| CTGAGCTTTC | 1.29 ± 0.15 |
| TGTGGCACGG | 0.966 ± 0.018 |
| TTGACTGGAG | 1 ± 0.011 |
| TTGGGGTTGC | 1.01 ± 0.034 |
| GAAATGGCAA | 1.03 ± 0.051 |
| TCACACGGAG | 1.043 ± 0.0056 |
| GTACCATTTT | 0.9968 ± 0.0067 |
| GAGTGTTTAG | 1.01 ± 0.016 |
| GGGTTAATAT | 1.04 ± 0.055 |
| GCTGTAAAGC | 1.03 ± 0.092 |
| ATTTAGGTTA | 0.989 ± 0.021 |
| AGCTCGGCGC | 1.02 ± 0.064 |
| TTCAATTTGC | 1.02 ± 0.033 |
| GTTTAGGATT | 1.21 ± 0.33 |
| ACCGAGGGGG | 1.02 ± 0.041 |
| GGATTACGTA | 1.04 ± 0.059 |
| TTCAGAAATT | 1.01 ± 0.011 |
| AACCGCGGGT | 1.03 ± 0.018 |
| TCTATATGGG | 0.99 ± 0.011 |

| Sequence | switch fluorescence ratio |
| --- | --- |
| GTTTTGGCTG | 1.02 ± 0.036 |
| CGTATGGGAA | 1.026 ± 0.0082 |
| GCTTGAAGGG | 1.01 ± 0.027 |
| CGTTTCCTTT | 0.993 ± 0.024 |
| AAGATCACGG | 0.971 ± 0.057 |
| CTAGGTTTGG | 1.02 ± 0.033 |
| AGCTTGTGAA | 1.01 ± 0.011 |
| CTTTGCCTAG | 0.9806 ± 0.0088 |
| GCCAGGCCGA | 0.979 ± 0.034 |
| GGGCGAGAGG | 1.02 ± 0.033 |
| GTGTGCACTG | 0.996 ± 0.029 |
| TAAAGGCAAG | 1.02 ± 0.018 |
| GTAGTAATTG | 1.075 ± 0.0065 |
| CTGGTTGGAG | 0.995 ± 0.022 |
| AGGGGTAAGA | 1.01 ± 0.032 |
| GAAAGGGTCC | 1.001 ± 0.01 |
| CCAAAAGTAT | 1.03 ± 0.081 |
| AAATCCGAAT | 1.01 ± 0.069 |
| TATTTCGGTG | 0.982 ± 0.027 |
| GTTAGCTTGC | 0.996 ± 0.029 |
| TTTAGGTTGG | 0.994 ± 0.031 |
| AGGAGGAGTA | 0.968 ± 0.019 |
| TTTTTACCAT | 1.04 ± 0.022 |
| TTTGGGATTC | 0.979 ± 0.028 |
| AAGCCCAGGG | 1.403 ± 0.0054 |

| Sequence | switch fluorescence ratio |
| --- | --- |
| TCAAGGGATC | 0.991 ± 0.073 |
| CCCAGAGTTC | 1.06 ± 0.023 |
| GTTACTGCTG | 1.03 ± 0.043 |
| TTGAGCATAT | 2.12 ± 1.2 |
| GCTAGCTAAG | 1.034 ± 0.0011 |
| TGTTAGTGGT | 1.01 ± 0.023 |
| GACATTGTTA | 1.01 ± 0.063 |
| ATAGTTCTGG | 0.992 ± 0.018 |
| GATGTTGTTA | 0.9647 ± 0.0086 |
| CGTGGGGATA | 1.031 ± 0.009 |
| TGGGTAAAGG | 0.956 ± 0.015 |
| CGGGAAGGGG | 1.02 ± 0.03 |
| AGTTTTTACC | 1.01 ± 0.046 |
| TATATTGAGG | 0.991 ± 0.042 |
| TGGGAGTCGG | 1.01 ± 0.035 |
| TGATGGTATA | 1.01 ± 0.025 |
| ATTTAATTAA | 1.02 ± 0.056 |
| TGACGGCCAG | 1.01 ± 0.013 |
| GGGGTGGGCG | 1.01 ± 0.058 |
| CTAAAGAAAG | 0.989 ± 0.013 |
| AAGAATATGC | 0.978 ± 0.027 |
| AGGGCGTTTC | 1.009 ± 0.0032 |
| GATTATAGGT | 1.01 ± 0.015 |
| GATAACGGGG | 0.972 ± 0.02 |
| CCATTGTGCA | 1.01 ± 0.013 |

| Sequence | switch fluorescence ratio |
| --- | --- |
| GGCTCTTATT | 1.009 ± 0.0057 |
| TAAAAAGGGC | 0.992 ± 0.057 |
| AGTGCTGTTC | 0.929 ± 0.082 |
| CATGCGTCGA | 1.044 ± 0.0035 |
| ATGATAAGGG | 0.979 ± 0.013 |
| CGATGTTATG | 1.02 ± 0.022 |
| AAGGAGGCTT | 1.05 ± 0.066 |
| CGAGGGGAGG | 1.05 ± 0.028 |
| TGGGTACTGG | 1.02 ± 0.018 |
| CGGGATTGAG | 0.979 ± 0.0058 |
| TTCAATGGGC | 0.998 ± 0.064 |
| CGTGGGGGAC | 0.997 ± 0.033 |
| GGCTCCGGGG | 1.03 ± 0.024 |
| TTATCGTTTG | 1.02 ± 0.043 |
| GTTGGGAAGT | 0.994 ± 0.038 |
| AATGCGTTCG | 0.99211 ± 0.00042 |
| AGGGGCTATG | 1.01 ± 0.032 |
| GTGTTTTAGG | 0.96 ± 0.032 |
| CTGAAAGATA | 0.977 ± 0.055 |
| CTATGATTCG | 1.01 ± 0.023 |
| GATGTGTTTC | 1.03 ± 0.06 |
| GCTGTTGTTC | 0.979 ± 0.041 |
| TGATGGGGGA | 1.01 ± 0.03 |
| CGTGGAGGGT | 0.9966 ± 0.0042 |
| TGTTAAATGT | 1.005 ± 0.01 |

| Sequence | switch fluorescence ratio |
| --- | --- |
| TCATAATGAT | 1.005 ± 0.0032 |
| CTTCTTTTGG | 0.996 ± 0.032 |
| TATGTGAGCT | 1.01 ± 0.024 |
| TTGACAATGT | 1.03 ± 0.095 |
| TGGACGAAGT | 1.01 ± 0.023 |
| AAATGGGAAA | 1.06 ± 0.084 |
| CGGTGGTTGT | 0.9948 ± 0.0052 |
| GAAGGGATTA | 1.01 ± 0.04 |
| GATGCGATGT | 1.18 ± 0.036 |
| CAAGGTCCAG | 1 ± 0.041 |
| ATTCCGTATA | 1.25 ± 0.022 |
| TAGGGGGAGT | 0.962 ± 0.059 |
| GGAGTATTAG | 0.999 ± 0.072 |
| AAAATTATTG | 1 ± 0.022 |
| GTTCGGGGCT | 0.999 ± 0.029 |
| TGCTCTGGGG | 0.996 ± 0.015 |
| GATTGACAAT | 1.03 ± 0.031 |
| TACCGTTGGG | 1.01 ± 0.038 |
| GGTCGCAGTC | 0.9649 ± 0.0016 |
| GGGATTTGGT | 1.02 ± 0.02 |
| TTGATCAGAG | 1.01 ± 0.024 |
| GGGGAGAGAA | 0.9855 ± 0.0071 |
| TTACATTT | 1.02 ± 0.017 |
| ATCAGAGGTG | 1.14 ± 0.0059 |
| TACTATTTTC | 0.984 ± 0.042 |

| Sequence | switch fluorescence ratio |
| --- | --- |
| TATGGAGACC | 0.9917 ± 0.0049 |
| TCGCAGCAGG | 2.82 ± 0.097 |
| GGCTTGGGAG | 0.982 ± 0.019 |
| GGGTGGCGCC | 0.988 ± 0.012 |
| ATAATGATTG | 0.994 ± 0.016 |
| AAGACTCGGT | 0.9518 ± 0.0012 |
| GGGTTTGTGT | 1.01 ± 0.019 |
| CCAAACAGGA | 1.006 ± 0.0063 |
| GGCCGATGCA | 1.02 ± 0.021 |
| AGGAGCAGCG | 0.919 ± 0.03 |
| TTGTTACAGA | 1.004 ± 0.0078 |
| CACGACTCGT | 1 ± 0.011 |
| ATGGGGTAGC | 0.995 ± 0.012 |
| TAATATCATT | 1 ± 0.019 |
| AATCGTTGCT | 0.952 ± 0.039 |
| AAGTAGTGCG | 1.01 ± 0.041 |
| CCAGTAGACT | 1.06 ± 0.035 |
| GGTATTGCGT | 0.977 ± 0.042 |
| AACAGTTAGG | 0.9762 ± 0.0069 |
| AAGGGAGCAA | 1.09 ± 0.037 |
| AGTCGGTGGA | 1 ± 0.011 |
| GGGCTGCGGA | 0.976 ± 0.051 |
| GGGCTCTAAA | 1 ± 0.018 |
| GGGTCAATAG | 1.42 ± 0.051 |
| TGGGTATAGA | 1.01 ± 0.032 |

From the supplement of paper PMC10126150
